Measured values from paper PMC9080154.

Target: Staphylococcal enterotoxin B (SEB) (Staphylococcus aureus, UniProt P01552 28-266)
Sequence (P01552 28-266): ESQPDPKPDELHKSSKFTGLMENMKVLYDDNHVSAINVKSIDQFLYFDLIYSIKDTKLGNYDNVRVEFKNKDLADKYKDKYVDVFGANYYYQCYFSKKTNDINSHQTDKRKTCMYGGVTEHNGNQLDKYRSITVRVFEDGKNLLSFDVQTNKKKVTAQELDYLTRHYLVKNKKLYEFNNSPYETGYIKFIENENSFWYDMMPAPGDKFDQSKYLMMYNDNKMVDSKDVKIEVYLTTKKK

B1: SEB aptamer (ssDNA)
DNA: GGTATTGAGGGTCGCATCCACTGGTCGTTGTTGTCTGTTGTCTGTTATGTTGTTTCGTGATGGCTCTAACTCTCCTCT
B1: binds.

B2: SEB aptamer1 (6-FAM) (ssDNA)
DNA: GGTATTGAGGGTCGCATCCACTGGTCGTTGTTGTCTGTTGTCTGTTATGTTGTTTCGTGATGGCTCTAACTCTCCTCT
B2: binds.
